Blank lines part the entries; values can stand above or below the binder they belong to. Numbered stars: 1 amine (or outer) side, 2 acyl side, 3 side chain; on linkers, the order of the positions; unused ones are H or OH. Bridge positions count the residues as written; N and C are the ends. Square brackets hold non-standard residues; d marks the D form. * marks the point of attachment. C20 diacid = O=C(O)CCCCCCCCCCCCCCCCCCC(=O)*; γGlu = O=C(O)[C@H](CCC(=O)[*:2])N[*:1]; Hyp = O=C(O)[C@@H]1C[C@@H](O)CN1; NMeI = CC[C@H](C)[C@H](NC)C(=O)O; Aad = N[C@@H](CCCC(=O)O)C(=O)O; Orn = NCCC[C@H](N)C(=O)O; Sar = CNCC(=O)O
Tests used:
[1] = target: recombinant human calcitonin receptor (hCT-R) (human), P30988; assay: cell-based or functional assay
recombinant human calcitonin receptor (hCT-R) (human), P30988, sequence (P30988 25-474): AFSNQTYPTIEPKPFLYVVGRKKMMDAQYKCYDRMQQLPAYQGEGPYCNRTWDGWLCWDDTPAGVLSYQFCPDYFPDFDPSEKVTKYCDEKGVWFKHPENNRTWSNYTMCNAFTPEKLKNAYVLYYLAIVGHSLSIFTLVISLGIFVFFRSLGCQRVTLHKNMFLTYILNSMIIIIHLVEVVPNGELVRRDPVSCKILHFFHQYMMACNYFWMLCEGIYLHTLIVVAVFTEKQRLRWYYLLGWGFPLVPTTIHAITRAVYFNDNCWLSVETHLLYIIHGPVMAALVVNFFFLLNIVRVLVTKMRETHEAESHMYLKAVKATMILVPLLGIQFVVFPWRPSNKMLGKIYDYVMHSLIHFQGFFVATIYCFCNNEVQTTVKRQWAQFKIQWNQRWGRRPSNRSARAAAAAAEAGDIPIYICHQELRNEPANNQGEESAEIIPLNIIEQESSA

[2] = target: recombinant human amylin 3 receptor (hAMYR3) (human), P30988; assay: cell-based or functional assay
recombinant human amylin 3 receptor (hAMYR3) (human), P30988, sequence (P30988 25-474, chain 1 of 2): as the sequence (P30988 25-474) above
recombinant human amylin 3 receptor (hAMYR3) (human), P30988, sequence (O60896 24-148, chain 2 of 2, further chain): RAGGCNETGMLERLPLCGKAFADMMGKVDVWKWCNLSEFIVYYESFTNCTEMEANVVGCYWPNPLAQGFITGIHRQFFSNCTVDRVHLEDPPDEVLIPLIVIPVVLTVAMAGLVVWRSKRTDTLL

hCT-R EC50 [nM] (cAMP formation, 1321N1 cells expressing hCT-R) [1]: 0.769 nM
hAMYR3 EC50 [nM] (cAMP formation, 1321N1 cells expressing hAMYR3) [2]: 0.12 nM
B1: Compound 26 (peptide)
peptide: {C20 diacid-γGlu}-RDGTAT[Orn]ATERLA[Aad]FLQRAAF[Sar]A[NMeI]LSSTEVGSNT[Hyp]-NH2
modifications: lactam 2-7
SMILES: CC[C@H](C)[C@@H](C(=O)N[C@@H](CC(C)C)C(=O)N[C@@H](CO)C(=O)N[C@@H](CO)C(=O)N[C@H](C(=O)N[C@@H](CCC(=O)O)C(=O)N[C@H](C(=O)NCC(=O)N[C@@H](CO)C(=O)N[C@@H](CC(N)=O)C(=O)N[C@H](C(=O)N1C[C@H](O)C[C@H]1C(N)=O)[C@@H](C)O)C(C)C)[C@@H](C)O)N(C)C(=O)[C@H](C)NC(=O)CN(C)C(=O)[C@H](Cc1ccccc1)NC(=O)[C@H](C)NC(=O)[C@H](C)NC(=O)[C@H](CCCNC(=N)N)NC(=O)[C@H](CCC(N)=O)NC(=O)[C@H](CC(C)C)NC(=O)[C@H](Cc1ccccc1)NC(=O)[C@H](CCCC(=O)O)NC(=O)[C@H](C)NC(=O)[C@H](CC(C)C)NC(=O)[C@H](CCCNC(=N)N)NC(=O)[C@H](CCC(=O)O)NC(=O)[C@@H](NC(=O)[C@H](C)NC(=O)[C@@H]1CCCNC(=O)C[C@H](NC(=O)[C@H](CCCNC(=N)N)NC(=O)CC[C@H](NC(=O)CCCCCCCCCCCCCCCCCCC(=O)O)C(=O)O)C(=O)NCC(=O)N[C@@H]([C@@H](C)O)C(=O)N[C@@H](C)C(=O)N[C@@H]([C@@H](C)O)C(=O)N1)[C@@H](C)O

hCT-R EC50 [nM] (cAMP formation, 1321N1 cells expressing hCT-R) [1]: 0.521 nM
hAMYR3 EC50 [nM] (cAMP formation, 1321N1 cells expressing hAMYR3) [2]: 0.325 nM
B2: Compound 27 (peptide)
peptide: {C20 diacid-γGlu}-RDGTAT[Orn]ATERLA[Aad]FLQRGTF[Sar]A[NMeI]LSSTEVGSNT[Hyp]-NH2
modifications: lactam 2-7
SMILES: CC[C@H](C)[C@@H](C(=O)N[C@@H](CC(C)C)C(=O)N[C@@H](CO)C(=O)N[C@@H](CO)C(=O)N[C@H](C(=O)N[C@@H](CCC(=O)O)C(=O)N[C@H](C(=O)NCC(=O)N[C@@H](CO)C(=O)N[C@@H](CC(N)=O)C(=O)N[C@H](C(=O)N1C[C@H](O)C[C@H]1C(N)=O)[C@@H](C)O)C(C)C)[C@@H](C)O)N(C)C(=O)[C@H](C)NC(=O)CN(C)C(=O)[C@H](Cc1ccccc1)NC(=O)[C@@H](NC(=O)CNC(=O)[C@H](CCCNC(=N)N)NC(=O)[C@H](CCC(N)=O)NC(=O)[C@H](CC(C)C)NC(=O)[C@H](Cc1ccccc1)NC(=O)[C@H](CCCC(=O)O)NC(=O)[C@H](C)NC(=O)[C@H](CC(C)C)NC(=O)[C@H](CCCNC(=N)N)NC(=O)[C@H](CCC(=O)O)NC(=O)[C@@H](NC(=O)[C@H](C)NC(=O)[C@@H]1CCCNC(=O)C[C@H](NC(=O)[C@H](CCCNC(=N)N)NC(=O)CC[C@H](NC(=O)CCCCCCCCCCCCCCCCCCC(=O)O)C(=O)O)C(=O)NCC(=O)N[C@@H]([C@@H](C)O)C(=O)N[C@@H](C)C(=O)N[C@@H]([C@@H](C)O)C(=O)N1)[C@@H](C)O)[C@@H](C)O

From patent US20180071366A1
